Results from patent US20230312745A1.
Blank lines part the entries; values can stand above or below the molecule they belong to.

How the values were obtained:
[1] = molecular target: Ly6C on mouse blood mononuclear cells (mouse) (UniProt P0CW02); assay: flow cytometry contour plot of live mononuclear-gated blood cells 1 h after injection into DSS treated mice; upper left quadrant 9.7; Mock panel 14.6 and 0.30
[2] = molecular target: LFA-1 on the mouse T cell lymphoma cell line TK1 (mouse) (UniProt P24063); assay: flow cytometry, control: secondary scFv on TK1 cells without RIg; left gate 97.9; unstain 1.87; target taken as the LFA-1 carried by TK1 cells
[3] = molecular target: anti-CD34 antibody (clone mec14.7) RIg, self-assembled on ASSET LNPs (TsiLNPs); assay: RIg taken up by ASSET LNPs, acrylamide gel against free RIg dilutions / western blot after 1 MDa dialysis
[4] = molecular target: Rat IgG2a (RIg), clone FIB504 (BioXcell); assay: ELISA on coated RIg, ASSET LNPs after dialysis, pre-incubated with 0.2% Triton X-100
[5] = molecular target: Rat IgG2a (RIg), clone FIB504 (BioXcell); assay: ELISA, plate coated with RIg, serial dilutions of ASSET, anti-His detection

UniProt P0CW02, sequence (P0CW02 27-109): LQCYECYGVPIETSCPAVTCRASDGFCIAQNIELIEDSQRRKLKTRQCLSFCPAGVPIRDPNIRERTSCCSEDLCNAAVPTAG

number in the upper right quadrant (Ly6C high, siCy5 high) [1]: 0.53
Molecule: isotype control RIg (BioXcell), self-assembled on ASSET LNPs (TsiLNPs) (antibody)

number in the right (positive) gate of the histogram [2]: 2.06
B1: Secondary scFv (scFv of clone RG7/1.30, without lipidation motif) (scFv)
scFv: HHHHHHEVQLLQSGPELVKPGASVKIPCKASGYTFTDYNMDWVKQSHEKSLEWIGYINPYSGDTIYNHKFKDKATLTVYKSSNIAYMELRSLTSEDTAVYYCARGGYDYGDHWGQGTTLTVSSGSAGGGGSGGGGSGGGGSDIKMTQSPSSMYASLGERVTITCKASQDINSYLSWFQQKPGKSPKTLIYRANRLVDGVPSRFSGSGSGQDYSLTISSLEYEDMGIYYCLQDDEFPRTFGGGTKLEIK

IgG incorporation [3]: 98.3% | functionality maintained after incorporation into LNPs [4]: 95.8% | Kd [5]: 10 nM
B2: ASSET (Anchored Secondary scFv Enabling Targeting) (scFv, part only; not given: mCherry fusion partner, part only)
scFv, part: CDQSSSEVQLLQSGPELVKPGASVKIPCKASGYTFTDYNMDWVKQSHEKSLEWIGYINPYSGDTIYNHKFKDKATLTVYKSSNIAYMELRSLTSEDTAVYYCARGGYDYGDHWGQGTTLTVSSGSAGGGGSGGGGSGGGGSDIKMTQSPSSMYASLGERVTITCKASQDINSYLSWFQQKPGKSPKTLIYRANRLVDGVPSRFSGSGSGQDYSLTISSLEYEDMGIYYCLQDDEFPRTFGGGTKLEIKHHHHHH
modifications: N-terminal cysteine of the CDQSSS NlpA motif is lipidated (bacterial lipidation)
